Measurements reported in patent publication US20120135923A1 (IPSEN PHARMA S A S, published 2012).
Bridge positions count the residues as written; N and C are the ends. Square brackets hold non-standard residues; d marks the D form. Ends that are not written are not given here. 2Nal = N[C@@H](Cc1ccc2ccccc2c1)C(=O)O; d2Nal = N[C@H](Cc1ccc2ccccc2c1)C(=O)O; Bta = N[C@@H](Cc1csc2ccccc12)C(=O)O; hPhe = N[C@@H](CCc1ccccc1)C(=O)O; Cha = N[C@@H](CC1CCCCC1)C(=O)O; dCha = N[C@H](CC1CCCCC1)C(=O)O; Pen = CC(C)(S)[C@H](N)C(=O)O; Nle = CCCC[C@H](N)C(=O)O; Ava = NCCCCC(=O)O; GABA = NCCCC(=O)O; βAla = NCCC(=O)O

What was measured:
hMC1-R = molecular target: T1, hMC1-R (human, UniProt Q01726 1-317); test: competition with [125I]-NDP-α-MSH, CHO-K1 membranes
T1 construct: whole, on cells; Assayed as membranes of CHO-K1 cells expressing the receptor; also called hMC-R receptor subtype 1; melanocyte-specific receptor (MC1-R)
T1 sequence (Q01726 whole entry): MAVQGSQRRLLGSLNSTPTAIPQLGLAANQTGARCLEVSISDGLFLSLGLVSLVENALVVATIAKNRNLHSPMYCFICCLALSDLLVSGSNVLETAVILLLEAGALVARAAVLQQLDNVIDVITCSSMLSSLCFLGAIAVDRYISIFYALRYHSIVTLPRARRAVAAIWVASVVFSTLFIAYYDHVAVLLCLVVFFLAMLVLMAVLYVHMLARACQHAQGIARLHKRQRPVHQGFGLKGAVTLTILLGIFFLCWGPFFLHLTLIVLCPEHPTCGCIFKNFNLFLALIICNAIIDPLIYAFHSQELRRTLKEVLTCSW
Description: (§1) Cellular membranes used for the in vitro receptor binding assays were obtained from transgenic CHO-K1 cells stably expressing hMC-R receptor subtypes 1, 3, 4 or 5. […] The pellets were resuspended in the same buffer and centrifuged at 50,000 g for 10 minutes at approximately 4° C. The washed pellets containing the cellular membranes were stored at approximately −80° C.
(§2) Competitive inhibition of [¹²⁵I](Tyr²)-(Nle⁴-D-Phe⁷)α-MSH ([¹²⁵I]-NDP-α-MSH, Amersham Biosciences®) binding was carried out in polypropylene 96 well plates. Cell membranes (1-10 μg protein/well) prepared as described above were incubated in 50 mM Tris-HCl at pH 7.4 containing 0.2% bovine serum albumin (BSA), 5 mM MgCl₂, 1 mM CaCl₂ and 0.1 mg/mL bacitracin, with increasing concentrations of the test compound and 0.1-0.3 nM […] for approximately 90-120 minutes at approximately 37° C. Bound [¹²⁵I]-NDP-α-MSH ligand was separated from free [¹²⁵I]-NDP-α-MSH by filtration through GF/C glass fiber filter plates (Unifilter®; Packard) presoaked with 0.1% (w/v) polyethylenimine (PEI), using a Packard Filtermate® harvester. Filters were washed three times with 50 mM Tris-HCl at pH 7.4 at a temperature of approximately 0-4° C. and then assayed for radioactivity using a Packard Topcount® scintillation counter. Binding data were analyzed by computer-assisted non-linear regression analysis (XL fit; IDBS).

hMC3-R = molecular target: T2, hMC3-R (human, UniProt P41968 1-323); test: as above
T2 construct: whole, on cells; Assayed as membranes of CHO-K1 cells expressing the receptor; also called hMC-R receptor subtype 3; melacortin-3 (MC3-R)
T2 sequence (P41968 whole entry): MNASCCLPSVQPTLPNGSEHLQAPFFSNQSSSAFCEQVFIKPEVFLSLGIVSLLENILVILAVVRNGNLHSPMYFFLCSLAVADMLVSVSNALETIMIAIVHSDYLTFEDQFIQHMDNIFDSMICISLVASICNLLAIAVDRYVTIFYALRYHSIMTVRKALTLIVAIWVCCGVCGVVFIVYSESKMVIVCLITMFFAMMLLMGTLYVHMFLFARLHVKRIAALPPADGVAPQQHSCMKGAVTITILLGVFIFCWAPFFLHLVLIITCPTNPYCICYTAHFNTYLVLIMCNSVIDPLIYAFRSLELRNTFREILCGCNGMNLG
Description: as §1, §2

hMC4-R = molecular target: T3, hMC4-R (human, UniProt P32245 1-332); test: as above
T3 construct: whole, on cells; Assayed as membranes of CHO-K1 cells expressing the receptor; also called hMC-R receptor subtype 4; melanocortin-4 (MC4-R)
T3 sequence (P32245 whole entry): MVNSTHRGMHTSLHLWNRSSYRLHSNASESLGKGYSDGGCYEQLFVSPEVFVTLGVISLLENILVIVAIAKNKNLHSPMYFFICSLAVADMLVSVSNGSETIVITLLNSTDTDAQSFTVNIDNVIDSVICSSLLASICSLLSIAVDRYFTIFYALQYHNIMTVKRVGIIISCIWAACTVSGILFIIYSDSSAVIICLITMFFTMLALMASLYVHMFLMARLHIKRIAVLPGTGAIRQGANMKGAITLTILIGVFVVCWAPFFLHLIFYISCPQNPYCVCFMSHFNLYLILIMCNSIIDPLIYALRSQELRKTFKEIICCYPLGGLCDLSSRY
Description: as §1, §2

hMC5-R = molecular target: T4, hMC5-R (human, UniProt P33032 1-325); test: as above
T4 construct: whole, on cells; Assayed as membranes of CHO-K1 cells expressing the receptor; also called hMC-R receptor subtype 5; melanocortin-5 receptor (MC5-R)
T4 sequence (P33032 whole entry): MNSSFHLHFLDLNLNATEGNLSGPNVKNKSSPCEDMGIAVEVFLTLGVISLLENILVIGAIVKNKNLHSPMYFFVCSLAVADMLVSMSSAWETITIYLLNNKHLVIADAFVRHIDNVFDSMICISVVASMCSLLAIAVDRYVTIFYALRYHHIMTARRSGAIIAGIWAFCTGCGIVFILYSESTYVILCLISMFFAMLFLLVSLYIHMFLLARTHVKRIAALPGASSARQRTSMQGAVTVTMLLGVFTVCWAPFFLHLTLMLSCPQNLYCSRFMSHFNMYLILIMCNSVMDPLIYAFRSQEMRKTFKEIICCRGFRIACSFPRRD
Description: as §1, §2

[1] = molecular target: T5, human melanocortin receptor subtype 1 (hMC1-R) (human, UniProt Q01726 1-317); test: [125I]-NDP-α-MSH competition, membranes
T5 construct: whole, on cells; membranes of CHO-K1 cells
T5 sequence (Q01726 whole entry): as the sequence (Q01726 whole entry) above
Description: as §1, §2

[2] = molecular target: T6, human melanocortin receptor subtype 4 (hMC4-R) (human, UniProt P32245 1-332); test: [125I]-NDP-α-MSH competition, membranes
T6 construct: whole, on cells; membranes of CHO-K1 cells
T6 sequence (P32245 whole entry): as the sequence (P32245 whole entry) above
Description: as §1, §2

[3] = molecular target: T7, human melanocortin receptor subtype 5 (hMC5-R) (human, UniProt P33032 1-325); test: [125I]-NDP-α-MSH competition, membranes
T7 construct: whole, on cells; membranes of CHO-K1 cells
T7 sequence (P33032 whole entry): as the sequence (P33032 whole entry) above
Description: as §1, §2

Ac-[Nle]DH[dF]RW[Ava]K-NH2 (lactam 2-8) [Ac-Nle-c(Asp-His-D-Phe-Arg-Trp-Apn-Lys)-NH2]
Ki (hMC1-R): 0.999 nM
Ki (hMC3-R): 300 nM
Ki (hMC4-R): 11.1 nM
Ki (hMC5-R): 431 nM

B1: Ac-Cha-c(Asp-His-D-Phe-Arg-Trp-Gaba-Lys)-NH2 (peptide)
peptide: Ac-[Cha]DH[dF]RW[GABA]K-NH2
modifications: lactam 2-8
SMILES: CC(=O)N[C@@H](CC1CCCCC1)C(=O)N[C@H]1CC(=O)NCCCC[C@@H](C(N)=O)NC(=O)CCCNC(=O)[C@H](Cc2c[nH]c3ccccc23)NC(=O)[C@H](CCCNC(=N)N)NC(=O)[C@@H](Cc2ccccc2)NC(=O)[C@H](Cc2c[nH]cn2)NC1=O
Ki (hMC1-R): 0.106 nM
Ki (hMC3-R): 11.8 nM
Ki (hMC4-R): 1.49 nM
Ki (hMC5-R): 110 nM

Ac-[hPhe]DH[dF]RW[GABA]K-NH2 (lactam 2-8) [Ac-hPhe-c(Asp-His-D-Phe-Arg-Trp-Gaba-Lys)-NH2]
Ki (hMC3-R): 25.2 nM
Ki (hMC4-R): 3.37 nM
Ki (hMC5-R): 203 nM

B2: Ac-Nle-c(Cys-D-Ala-His-D-Phe-Arg-Trp-Gly-Cys)-NH2 (peptide)
peptide: Ac-[Nle]C[dA]H[dF]RWGC-NH2
modifications: disulfide 2-9
SMILES: CCCC[C@H](NC(C)=O)C(=O)N[C@H]1CSSC[C@@H](C(N)=O)NC(=O)CNC(=O)[C@H](Cc2c[nH]c3ccccc23)NC(=O)[C@H](CCCNC(=N)N)NC(=O)[C@@H](Cc2ccccc2)NC(=O)[C@H](Cc2c[nH]cn2)NC(=O)[C@@H](C)NC1=O
Ki (hMC3-R): 149 nM
Ki (hMC4-R): 3.01 nM
Ki (hMC5-R): 339 nM

Ac-CEH[dF]R[2Nal]AC-NH2 (disulfide 1-8) [Ac-c(Cys-Glu-His-D-Phe-Arg-2-Nal-Ala-Cys)-NH2]
Ki (hMC1-R): 262 nM
Ki (hMC4-R): 96.4 nM
Ki (hMC5-R): 1460 nM

Ac-[Nle]C[dI]H[dF]RWC-NH2 (disulfide 2-8) [Ac-Nle-c(Cys-D-Ile-His-D-Phe-Arg-Trp-Cys)-NH2]
Ki (hMC1-R): 4.28 nM
Ki (hMC4-R): 9 nM
Ki (hMC5-R): 12.5 nM

Ac-[Nle]C[dV]H[dF]RWC-NH2 (disulfide 2-8) [Ac-Nle-c(Cys-D-Val-His-D-Phe-Arg-Trp-Cys)-NH2]
Ki (hMC1-R): 13 nM
Ki (hMC3-R): 104 nM
Ki (hMC5-R): 40 nM

B3: Ac-Nle-c(Cys-D-Cha-His-D-Phe-Arg-Trp-Cys)-NH2 (peptide)
peptide: Ac-[Nle]C[dCha]H[dF]RWC-NH2
modifications: disulfide 2-8
SMILES: CCCC[C@H](NC(C)=O)C(=O)N[C@H]1CSSC[C@@H](C(N)=O)NC(=O)[C@H](Cc2c[nH]c3ccccc23)NC(=O)[C@H](CCCNC(=N)N)NC(=O)[C@@H](Cc2ccccc2)NC(=O)[C@H](Cc2c[nH]cn2)NC(=O)[C@@H](CC2CCCCC2)NC1=O
Ki (hMC1-R): 0.353 nM
Ki (hMC3-R): 2.08 nM
Ki (hMC4-R): 1.41 nM

Ac-[Nle]D[dA]H[dF]R[Bta]AK-NH2 (lactam 2-9) [Ac-Nle-c(Asp-D-Ala-His-D-Phe-Arg-Bal-Ala-Lys)-NH2]
Ki (hMC1-R): 4.89 nM
Ki (hMC4-R): 21.3 nM
Ki (hMC5-R): 11.1 nM

Ac-[dR]DH[dF]RWAK-NH2 (lactam 2-8) [Ac-D-Arg-c(Asp-His-D-Phe-Arg-Trp-Ala-Lys)-NH2]
Ki (hMC1-R): 0.79 nM
Ki (hMC3-R): 45.5 nM
Ki (hMC5-R): 493 nM

Ac-[Nle]DH[d2Nal]RWAK-NH2 (lactam 2-8) [Ac-Nle-c(Asp-His-D-2-Nal-Arg-Trp-Ala-Lys)-NH2]
Ki (hMC1-R): 1.17 nM

B4: Ac-c(Cys-Glu-His-D-2-Nal-Arg-2-Nal-Ala-Cys)-Pro-Pro-Arg-Asp-β-[…]NH2 (peptide)
peptide: Ac-CEH[d2Nal]R[2Nal]ACPPRD[βAla]RRRRRQRRR-NH2
modifications: disulfide 1-8
SMILES: CC(=O)N[C@H]1CSSC[C@@H](C(=O)N2CCC[C@H]2C(=O)N2CCC[C@H]2C(=O)N[C@@H](CCCNC(=N)N)C(=O)N[C@@H](CC(=O)O)C(=O)NCCC(=O)N[C@@H](CCCNC(=N)N)C(=O)N[C@@H](CCCNC(=N)N)C(=O)N[C@@H](CCCNC(=N)N)C(=O)N[C@@H](CCCNC(=N)N)C(=O)N[C@@H](CCCNC(=N)N)C(=O)N[C@@H](CCC(N)=O)C(=O)N[C@@H](CCCNC(=N)N)C(=O)N[C@@H](CCCNC(=N)N)C(=O)N[C@@H](CCCNC(=N)N)C(N)=O)NC(=O)[C@H](C)NC(=O)[C@H](Cc2ccc3ccccc3c2)NC(=O)[C@H](CCCNC(=N)N)NC(=O)[C@@H](Cc2ccc3ccccc3c2)NC(=O)[C@H](Cc2c[nH]cn2)NC(=O)[C@H](CCC(=O)O)NC1=O
Ki [1]: 2.63 nM
Ki [2]: 0.0737 nM
Ki [3]: 11.6 nM

Ac-CEH[d2Nal]R[Bta]ACPPKD[βAla]RRKRRQRRR-NH2 (disulfide 1-8) [Ac-c(Cys-Glu-His-D-2-Nal-Arg-Bal-Ala-Cys)-Pro-Pro-Lys-Asp-β-[…]NH2]
Ki [1]: 3 nM
Ki [2]: 0.442 nM
Ki [3]: 15.5 nM

Ac-CEH[d2Nal]R[2Nal]ACPPKD[βAla]GRKRRRQRRR-NH2 (disulfide 1-8)
Ki [1]: 5.66 nM
Ki [2]: 0.446 nM
Ki [3]: 6.23 nM

Ac-CEH[d2Nal]R[2Nal]ACPPKD[βAla]RRRRRQRRR-NH2 (disulfide 1-8)
Ki [1]: 2.48 nM
Ki [3]: 9.17 nM

B5: c[Hydantoin(C(O)-(Asp-His))-D-2-Nal-Arg-Trp-Lys]-NH2 (peptide)
peptide: DH[d2Nal]RWK-NH2
modifications: lactam 1-6; also: hydantoin ring: N-terminal N of Asp1 and backbone N of His2 bridged by one C(O), bridge at N via C(O), other end not in the chain
Ki [1]: 200 nM

B6: Hydantoin(C(O)-(Nle-Gly))-c(Cys-Glu-His-D-Phe-Arg-Trp-Cys)-NH2 (peptide)
peptide: [Nle]GCEH[dF]RWC-NH2
modifications: disulfide 3-9; also: N-terminal hydantoin: C(O) bridges X1 N-terminal N and G2 backbone N, bridge at N via C(O), other end not in the chain
Ki [1]: 14.3 nM
Ki [3]: 67.8 nM

RGCEH[dF]RWC-NH2 (disulfide 3-9; also: hydantoin ring from C(O) with Arg1-Gly2) [Hydantoin(C(O)-(Arg-Gly))-c(Cys-Glu-His-D-Phe-Arg-Trp-Cys)-NH2]
Ki [1]: 8.59 nM
Ki [2]: 2.44 nM
Ki [3]: 7760 nM

GRCEH[dF]RWC-NH2 (disulfide 3-9; also: hydantoin ring from C(O) with Gly1-Arg2) [Hydantoin(C(O)-(Gly-Arg))-c(Cys-Glu-His-D-Phe-Arg-Trp-Cys)-NH2]
Ki [1]: 5.68 nM
Ki [2]: 2.44 nM
Ki [3]: 4220 nM

GGCEH[dF]RWC-NH2 (disulfide 3-9; also: hydantoin ring from C(O) with Gly1-Gly2) [Hydantoin(C(O)-(Gly-Gly))-c(Cys-Glu-His-D-Phe-Arg-Trp-Cys)-NH2]
Ki [1]: 11.9 nM
Ki [3]: 73.9 nM

B7: Hydantoin(C(O)-(Nle-Gly))-c(Cys-D-Ala-His-D-Phe-Arg-Trp-Pen)-NH2 (peptide)
peptide: [Nle]GC[dA]H[dF]RW[Pen]-NH2
modifications: disulfide 3-9; also: N-terminal hydantoin: C(O) bridges X1 N-terminal N and G2 backbone N, bridge at N via C(O), other end not in the chain
Ki [1]: 12.9 nM
Ki [2]: 3.53 nM
Ki [3]: 27.1 nM

B8: Hydantoin(C(O)-(Arg-Gly))-c(Cys-D-Ala-His-D-2-Nal-Arg-Trp-Cys)-NH2 (peptide)
peptide: RGC[dA]H[d2Nal]RWC-NH2
modifications: disulfide 3-9; also: N-terminal hydantoin: C(O) bridges Arg1 N-alpha and Gly2 N, bridge at N via C(O), other end not in the chain
Ki [1]: 11.9 nM
Ki [2]: 0.195 nM
